Test results as given in doi:10.1101/2025.09.16.670041 (bioRxiv, 2025).
Values joined by “and” are separate entries in the source; they are usually repeats but may differ in a detail not shown here. Equal values may be shown once. Read-outs that look alike come from different tables or passages of the source. No end group written: not given here. fluorescein = fluorescein (N-terminal fluorescent label on the UBE3A peptide)

Assays:
[1] = target: biotinylated MBP-fused HERC2 RLD2 domain (residues 2941-3342) (human) (UniProt O95714); assay: native holdup assay
[2] = target: T1, endogenous full-length UBE3A from mouse brain (mouse (endogenous in mouse brain), UniProt O08759 1-870); assay: native holdup assay
T1 sequence (looked up): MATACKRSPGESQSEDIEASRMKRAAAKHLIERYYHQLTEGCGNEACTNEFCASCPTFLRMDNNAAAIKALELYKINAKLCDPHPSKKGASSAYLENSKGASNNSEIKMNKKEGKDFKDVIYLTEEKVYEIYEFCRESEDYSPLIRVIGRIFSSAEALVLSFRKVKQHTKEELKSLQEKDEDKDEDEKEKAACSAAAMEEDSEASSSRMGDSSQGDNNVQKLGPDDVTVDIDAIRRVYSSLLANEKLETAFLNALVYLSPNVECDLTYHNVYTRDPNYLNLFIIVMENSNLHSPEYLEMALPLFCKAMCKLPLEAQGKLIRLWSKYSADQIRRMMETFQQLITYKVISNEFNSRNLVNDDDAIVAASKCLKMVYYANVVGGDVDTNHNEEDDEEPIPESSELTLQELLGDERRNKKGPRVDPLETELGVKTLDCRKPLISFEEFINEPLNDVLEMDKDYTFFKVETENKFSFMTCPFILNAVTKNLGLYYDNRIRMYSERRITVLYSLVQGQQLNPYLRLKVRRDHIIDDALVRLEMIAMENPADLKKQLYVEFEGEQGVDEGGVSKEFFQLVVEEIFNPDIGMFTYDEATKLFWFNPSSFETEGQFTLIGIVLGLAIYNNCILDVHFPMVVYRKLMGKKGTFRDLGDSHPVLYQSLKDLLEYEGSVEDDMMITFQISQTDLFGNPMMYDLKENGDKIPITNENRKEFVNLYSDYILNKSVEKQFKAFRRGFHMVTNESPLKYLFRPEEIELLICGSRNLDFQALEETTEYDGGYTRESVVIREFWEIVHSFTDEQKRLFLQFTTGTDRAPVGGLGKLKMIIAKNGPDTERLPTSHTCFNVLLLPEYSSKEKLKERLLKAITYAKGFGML

[3] = target: endogenous full-length DOCK10 (human (endogenous in SH-SY5Y), UniProt Q96BY6 1-2186); assay: native holdup assay
[4] = target: endogenous full-length PCM1 (human (endogenous in SH-SY5Y), UniProt Q15154 1-2024); assay: native holdup assay
[5] = target: T2, endogenous full-length ARID4A (human (endogenous in SH-SY5Y), UniProt P29374 1-1257); assay: native holdup assay
T2 sequence (looked up): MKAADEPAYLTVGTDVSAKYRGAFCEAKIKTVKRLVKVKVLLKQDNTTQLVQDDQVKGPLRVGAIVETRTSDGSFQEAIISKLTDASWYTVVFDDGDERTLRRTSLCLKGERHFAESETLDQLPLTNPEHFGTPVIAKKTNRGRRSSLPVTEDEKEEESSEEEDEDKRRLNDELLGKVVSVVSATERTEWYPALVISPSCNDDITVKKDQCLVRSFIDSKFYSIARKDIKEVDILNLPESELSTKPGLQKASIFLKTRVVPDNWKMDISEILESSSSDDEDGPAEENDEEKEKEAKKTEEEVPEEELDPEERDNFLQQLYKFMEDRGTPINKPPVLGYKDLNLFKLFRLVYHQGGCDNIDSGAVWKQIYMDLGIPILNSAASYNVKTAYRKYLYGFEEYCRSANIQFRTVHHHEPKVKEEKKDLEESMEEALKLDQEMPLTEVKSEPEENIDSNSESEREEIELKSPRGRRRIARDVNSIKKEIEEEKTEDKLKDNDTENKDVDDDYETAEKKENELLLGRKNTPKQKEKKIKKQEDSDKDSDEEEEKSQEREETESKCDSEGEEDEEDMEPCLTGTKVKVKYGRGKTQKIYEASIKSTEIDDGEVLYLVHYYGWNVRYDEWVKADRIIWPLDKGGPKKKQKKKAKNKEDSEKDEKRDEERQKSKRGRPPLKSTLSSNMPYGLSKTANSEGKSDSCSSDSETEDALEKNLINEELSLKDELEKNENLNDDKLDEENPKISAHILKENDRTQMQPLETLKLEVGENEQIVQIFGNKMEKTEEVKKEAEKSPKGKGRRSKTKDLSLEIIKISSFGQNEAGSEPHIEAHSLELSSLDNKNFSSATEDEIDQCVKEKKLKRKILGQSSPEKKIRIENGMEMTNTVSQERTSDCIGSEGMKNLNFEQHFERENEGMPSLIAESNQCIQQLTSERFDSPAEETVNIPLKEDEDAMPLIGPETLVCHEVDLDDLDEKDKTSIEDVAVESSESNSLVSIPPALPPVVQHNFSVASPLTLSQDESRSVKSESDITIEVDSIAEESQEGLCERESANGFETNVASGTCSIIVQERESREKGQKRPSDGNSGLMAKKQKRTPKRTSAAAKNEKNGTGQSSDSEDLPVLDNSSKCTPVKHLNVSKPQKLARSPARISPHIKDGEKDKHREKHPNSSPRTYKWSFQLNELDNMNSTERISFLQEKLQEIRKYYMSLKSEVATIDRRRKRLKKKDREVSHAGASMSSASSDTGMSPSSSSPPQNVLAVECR

[6] = target: endogenous full-length UBE3A from SH-SY5Y cells (human (endogenous in SH-SY5Y), UniProt Q05086 1-875); assay: native holdup assay
[7] = target: T3, endogenous full-length HERC2 (human (endogenous in SH-SY5Y), UniProt O95714 1-4834); assay: native holdup assay
[8] = target: T4, HERC2 RLD2 domain (residues 2941-3342), untagged (human, UniProt O95714 2941-3342); assay: fluorescence polarisation
T4 sequence (looked up): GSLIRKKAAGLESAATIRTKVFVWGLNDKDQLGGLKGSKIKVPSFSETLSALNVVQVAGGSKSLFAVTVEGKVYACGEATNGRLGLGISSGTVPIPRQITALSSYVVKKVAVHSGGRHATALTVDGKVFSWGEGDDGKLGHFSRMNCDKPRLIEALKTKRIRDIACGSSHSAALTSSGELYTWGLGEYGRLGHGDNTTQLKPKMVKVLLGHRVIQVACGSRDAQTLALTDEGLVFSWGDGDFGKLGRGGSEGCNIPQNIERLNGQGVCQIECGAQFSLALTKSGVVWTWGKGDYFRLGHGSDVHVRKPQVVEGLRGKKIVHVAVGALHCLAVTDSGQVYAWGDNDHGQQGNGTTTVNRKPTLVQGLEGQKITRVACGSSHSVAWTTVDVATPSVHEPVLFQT

[9] = target: T3, endogenous full-length HERC2; assay: native holdup assay; remark: listed apart in the source

T3 sequence (O95714 whole entry, the tested form may be a part): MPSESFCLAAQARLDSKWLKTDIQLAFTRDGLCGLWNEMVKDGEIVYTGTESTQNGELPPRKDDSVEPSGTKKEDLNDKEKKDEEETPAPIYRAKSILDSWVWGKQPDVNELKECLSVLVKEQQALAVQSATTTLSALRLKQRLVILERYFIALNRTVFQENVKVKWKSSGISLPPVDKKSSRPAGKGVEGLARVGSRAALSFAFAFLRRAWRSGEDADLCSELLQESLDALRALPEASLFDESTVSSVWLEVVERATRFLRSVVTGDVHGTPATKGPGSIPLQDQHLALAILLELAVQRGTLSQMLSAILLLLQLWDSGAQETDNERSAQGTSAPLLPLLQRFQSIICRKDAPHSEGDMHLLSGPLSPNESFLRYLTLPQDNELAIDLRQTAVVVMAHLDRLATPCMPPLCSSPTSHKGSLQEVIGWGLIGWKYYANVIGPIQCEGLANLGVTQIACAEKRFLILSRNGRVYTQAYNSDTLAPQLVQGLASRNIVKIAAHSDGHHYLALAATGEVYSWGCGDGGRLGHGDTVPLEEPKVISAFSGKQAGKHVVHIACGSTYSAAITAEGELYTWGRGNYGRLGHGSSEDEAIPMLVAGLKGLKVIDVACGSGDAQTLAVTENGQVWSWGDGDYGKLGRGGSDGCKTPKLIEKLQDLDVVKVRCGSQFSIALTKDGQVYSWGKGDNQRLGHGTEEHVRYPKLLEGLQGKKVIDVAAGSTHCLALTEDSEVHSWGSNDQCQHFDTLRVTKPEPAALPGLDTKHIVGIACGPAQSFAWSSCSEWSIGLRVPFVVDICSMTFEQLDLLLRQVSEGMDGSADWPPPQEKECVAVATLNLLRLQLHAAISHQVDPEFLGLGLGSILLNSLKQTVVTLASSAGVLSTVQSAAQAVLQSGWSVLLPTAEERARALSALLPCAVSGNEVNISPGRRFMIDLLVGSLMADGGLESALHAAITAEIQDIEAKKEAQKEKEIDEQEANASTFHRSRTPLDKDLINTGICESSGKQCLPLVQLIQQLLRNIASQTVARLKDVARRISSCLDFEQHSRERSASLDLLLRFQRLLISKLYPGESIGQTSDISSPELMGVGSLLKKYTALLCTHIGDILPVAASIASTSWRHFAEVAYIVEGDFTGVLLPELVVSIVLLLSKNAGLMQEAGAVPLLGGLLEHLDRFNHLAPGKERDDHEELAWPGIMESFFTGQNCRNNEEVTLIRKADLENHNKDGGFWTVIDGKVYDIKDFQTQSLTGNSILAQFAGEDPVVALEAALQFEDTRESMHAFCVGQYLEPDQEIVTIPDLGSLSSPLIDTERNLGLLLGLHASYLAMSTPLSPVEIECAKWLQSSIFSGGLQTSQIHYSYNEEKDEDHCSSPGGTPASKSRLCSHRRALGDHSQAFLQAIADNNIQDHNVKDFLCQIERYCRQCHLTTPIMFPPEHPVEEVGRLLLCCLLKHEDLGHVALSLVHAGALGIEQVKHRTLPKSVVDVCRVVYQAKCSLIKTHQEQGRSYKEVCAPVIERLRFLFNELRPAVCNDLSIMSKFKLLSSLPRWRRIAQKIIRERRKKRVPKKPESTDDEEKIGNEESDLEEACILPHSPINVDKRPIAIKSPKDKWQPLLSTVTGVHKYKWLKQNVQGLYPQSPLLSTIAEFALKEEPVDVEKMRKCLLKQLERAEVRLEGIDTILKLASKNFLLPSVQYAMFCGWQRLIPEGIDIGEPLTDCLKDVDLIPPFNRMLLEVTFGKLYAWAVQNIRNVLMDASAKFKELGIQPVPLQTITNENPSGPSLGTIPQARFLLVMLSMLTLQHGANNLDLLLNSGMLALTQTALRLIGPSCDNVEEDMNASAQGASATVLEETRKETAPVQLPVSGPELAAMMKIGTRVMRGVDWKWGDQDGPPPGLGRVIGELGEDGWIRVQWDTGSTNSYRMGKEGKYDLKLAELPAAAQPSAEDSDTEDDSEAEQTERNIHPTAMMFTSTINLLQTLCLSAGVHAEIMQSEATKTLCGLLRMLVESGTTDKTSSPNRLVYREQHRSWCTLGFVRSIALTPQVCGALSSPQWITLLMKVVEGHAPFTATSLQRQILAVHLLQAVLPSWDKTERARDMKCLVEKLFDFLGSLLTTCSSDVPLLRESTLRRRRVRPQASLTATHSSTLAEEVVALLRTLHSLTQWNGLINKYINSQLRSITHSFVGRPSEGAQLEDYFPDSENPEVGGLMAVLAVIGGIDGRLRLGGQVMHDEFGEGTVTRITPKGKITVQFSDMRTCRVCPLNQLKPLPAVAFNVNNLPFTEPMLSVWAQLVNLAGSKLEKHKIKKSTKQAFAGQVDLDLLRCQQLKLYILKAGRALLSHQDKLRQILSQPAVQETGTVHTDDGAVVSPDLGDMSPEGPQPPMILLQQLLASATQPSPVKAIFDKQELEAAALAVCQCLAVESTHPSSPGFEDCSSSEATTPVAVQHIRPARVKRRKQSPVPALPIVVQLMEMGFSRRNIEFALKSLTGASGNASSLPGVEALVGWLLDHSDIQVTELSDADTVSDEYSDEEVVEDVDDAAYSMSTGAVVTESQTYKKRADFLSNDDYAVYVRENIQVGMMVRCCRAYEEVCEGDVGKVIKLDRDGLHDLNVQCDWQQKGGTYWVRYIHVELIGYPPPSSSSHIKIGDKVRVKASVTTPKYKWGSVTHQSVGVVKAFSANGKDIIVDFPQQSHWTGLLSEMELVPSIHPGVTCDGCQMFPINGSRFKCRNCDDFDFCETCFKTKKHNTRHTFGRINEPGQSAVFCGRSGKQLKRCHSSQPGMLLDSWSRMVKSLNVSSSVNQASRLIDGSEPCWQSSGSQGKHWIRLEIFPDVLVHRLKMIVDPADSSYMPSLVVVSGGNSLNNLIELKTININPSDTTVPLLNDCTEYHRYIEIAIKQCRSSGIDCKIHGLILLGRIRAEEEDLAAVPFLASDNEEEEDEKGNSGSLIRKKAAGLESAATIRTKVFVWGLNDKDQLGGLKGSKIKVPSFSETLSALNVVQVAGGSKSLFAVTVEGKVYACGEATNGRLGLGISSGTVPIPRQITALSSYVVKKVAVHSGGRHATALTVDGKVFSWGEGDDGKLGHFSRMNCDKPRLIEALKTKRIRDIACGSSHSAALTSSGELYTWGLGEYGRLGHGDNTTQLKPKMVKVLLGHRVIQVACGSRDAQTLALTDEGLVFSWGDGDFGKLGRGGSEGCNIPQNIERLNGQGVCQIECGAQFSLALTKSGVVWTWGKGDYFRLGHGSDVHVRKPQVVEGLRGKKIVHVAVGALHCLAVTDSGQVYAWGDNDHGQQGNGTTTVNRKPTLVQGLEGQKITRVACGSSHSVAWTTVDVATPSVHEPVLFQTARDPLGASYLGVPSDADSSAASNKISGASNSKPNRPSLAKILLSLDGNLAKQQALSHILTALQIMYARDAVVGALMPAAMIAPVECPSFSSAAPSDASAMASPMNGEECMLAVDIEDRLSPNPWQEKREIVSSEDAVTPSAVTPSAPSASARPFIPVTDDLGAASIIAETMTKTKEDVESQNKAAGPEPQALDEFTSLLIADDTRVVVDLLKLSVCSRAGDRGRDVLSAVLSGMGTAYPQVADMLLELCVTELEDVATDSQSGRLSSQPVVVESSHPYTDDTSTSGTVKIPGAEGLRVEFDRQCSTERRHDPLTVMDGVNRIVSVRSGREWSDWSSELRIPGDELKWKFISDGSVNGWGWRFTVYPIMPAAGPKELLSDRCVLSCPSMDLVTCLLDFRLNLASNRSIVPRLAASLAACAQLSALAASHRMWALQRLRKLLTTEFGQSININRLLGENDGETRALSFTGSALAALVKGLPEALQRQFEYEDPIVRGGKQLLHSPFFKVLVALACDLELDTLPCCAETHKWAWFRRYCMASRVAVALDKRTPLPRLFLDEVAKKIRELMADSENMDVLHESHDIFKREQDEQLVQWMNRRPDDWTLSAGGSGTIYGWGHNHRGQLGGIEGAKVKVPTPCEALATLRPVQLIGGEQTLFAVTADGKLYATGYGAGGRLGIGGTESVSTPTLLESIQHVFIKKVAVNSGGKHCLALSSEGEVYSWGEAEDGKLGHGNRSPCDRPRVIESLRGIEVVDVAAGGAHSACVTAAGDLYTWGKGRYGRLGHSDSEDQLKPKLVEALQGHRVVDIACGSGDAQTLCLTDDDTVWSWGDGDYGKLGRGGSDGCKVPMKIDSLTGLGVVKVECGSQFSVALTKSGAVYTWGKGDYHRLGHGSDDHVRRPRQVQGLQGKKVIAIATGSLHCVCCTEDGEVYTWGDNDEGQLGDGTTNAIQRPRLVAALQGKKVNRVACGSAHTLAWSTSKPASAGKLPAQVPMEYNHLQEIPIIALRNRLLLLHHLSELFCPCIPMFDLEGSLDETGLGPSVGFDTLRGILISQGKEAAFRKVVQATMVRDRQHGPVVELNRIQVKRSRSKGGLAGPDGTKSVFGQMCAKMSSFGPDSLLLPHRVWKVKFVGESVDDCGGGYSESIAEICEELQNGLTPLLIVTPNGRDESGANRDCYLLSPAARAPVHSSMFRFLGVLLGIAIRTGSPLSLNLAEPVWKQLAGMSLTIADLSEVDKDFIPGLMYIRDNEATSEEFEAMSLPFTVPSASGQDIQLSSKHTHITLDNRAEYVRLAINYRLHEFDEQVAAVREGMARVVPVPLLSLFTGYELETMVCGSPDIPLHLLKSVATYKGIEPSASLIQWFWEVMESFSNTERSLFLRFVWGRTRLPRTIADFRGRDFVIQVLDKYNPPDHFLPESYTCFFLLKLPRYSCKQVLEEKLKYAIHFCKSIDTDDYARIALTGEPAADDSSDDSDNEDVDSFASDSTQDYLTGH

“endogenous full-length UBE3A from zebrafish embryos (enzyme)” gave a Kd [1] of 100 nM.

With “endogenous full-length MYT1 (from UniProt Q01538 1-1121) (natural protein)” the Kd [1] was > 10000 nM.

B1: biotinylated MBP-fused HERC2 RLD2 domain (residues 2941-3342) (domain or fragment, human, UniProt O95714 2941-3342, looked up)
chain: GSLIRKKAAGLESAATIRTKVFVWGLNDKDQLGGLKGSKIKVPSFSETLSALNVVQVAGGSKSLFAVTVEGKVYACGEATNGRLGLGISSGTVPIPRQITALSSYVVKKVAVHSGGRHATALTVDGKVFSWGEGDDGKLGHFSRMNCDKPRLIEALKTKRIRDIACGSSHSAALTSSGELYTWGLGEYGRLGHGDNTTQLKPKMVKVLLGHRVIQVACGSRDAQTLALTDEGLVFSWGDGDFGKLGRGGSEGCNIPQNIERLNGQGVCQIECGAQFSLALTKSGVVWTWGKGDYFRLGHGSDVHVRKPQVVEGLRGKKIVHVAVGALHCLAVTDSGQVYAWGDNDHGQQGNGTTTVNRKPTLVQGLEGQKITRVACGSSHSVAWTTVDVATPSVHEPVLFQT
modifications: biotin on the AviTag (in vivo biotinylation)
B1 was tested, and the Kd [2] was ~100 nM, the Kd [3] was 2600 ± 500 nM and the Kd [4] was 260 ± 40 nM. For the same molecule, the Kd [5] was < 100 nM and the Kd [6] was < 100 nM and ~100 nM.

HTKEELKSLQAKDEDKDEDEKEKAA (also: biotin, position not given here) [biotinylated UBE3A peptide containing amino acids 150-174] gave a Kd [7] of 340 ± 90 nM.

B2: UBE3A peptide residues 150-200 (peptide, UniProt Q05086-2 150-200, looked up)
peptide: HTKEELKSLQAKDEDKDEDEKEKAACSAAAMEEDSEASSSRIGDSSQGDNN
B2: binds [8].

B3: biotinylated full-length MBP-fused UBE3A protein (enzyme, human, UniProt Q05086-2 1-852, looked up)
chain: MKRAAAKHLIERYYHQLTEGCGNEACTNEFCASCPTFLRMDNNAAAIKALELYKINAKLCDPHPSKKGASSAYLENSKGAPNNSCSEIKMNKKGARIDFKDVTYLTEEKVYEILELCREREDYSPLIRVIGRVFSSAEALVQSFRKVKQHTKEELKSLQAKDEDKDEDEKEKAACSAAAMEEDSEASSSRIGDSSQGDNNLQKLGPDDVSVDIDAIRRVYTRLLSNEKIETAFLNALVYLSPNVECDLTYHNVYSRDPNYLNLFIIVMENRNLHSPEYLEMALPLFCKAMSKLPLAAQGKLIRLWSKYNADQIRRMMETFQQLITYKVISNEFNSRNLVNDDDAIVAASKCLKMVYYANVVGGEVDTNHNEEDDEEPIPESSELTLQELLGEERRNKKGPRVDPLETELGVKTLDCRKPLIPFEEFINEPLNEVLEMDKDYTFFKVETENKFSFMTCPFILNAVTKNLGLYYDNRIRMYSERRITVLYSLVQGQQLNPYLRLKVRRDHIIDDALVRLEMIAMENPADLKKQLYVEFEGEQGVDEGGVSKEFFQLVVEEIFNPDIGMFTYDESTKLFWFNPSSFETEGQFTLIGIVLGLAIYNNCILDVHFPMVVYRKLMGKKGTFRDLGDSHPVLYQSLKDLLEYEGNVEDDMMITFQISQTDLFGNPMMYDLKENGDKIPITNENRKEFVNLYSDYILNKSVEKQFKAFRRGFHMVTNESPLKYLFRPEEIELLICGSRNLDFQALEETTEYDGGYTRDSVLIREFWEIVHSFTDEQKRLFLQFTTGTDRAPVGGLGKLKMIIAKNGPDTERLPTSHTCFNVLLLPEYSSKEKLKERLLKAITYAKGFGML
modifications: biotin on the AviTag (in vivo biotinylation)
B3 showed a Kd [9] of 560 ± 150 nM.

AKDEDKDEDEKEKAA (peptide, UniProt Q05086-2 160-174, looked up) [UBE3A peptide residues 160-174] showed a Kd [8] of 6850 ± 290 nM.

fluorescein-SLQAKDEDKDEDEKEKAA [UBE3A 18-aa linked to fluorescein]: binds [8].

With HTKEELKSLQAKDEDKDEDEKEKAA [non-labeled UBE3A peptide residues 150-174] the Kd [8] was < 100 nM.
